Changes are numbered by the printed parent chain.
What was measured:
7-peptide YQDSAKT = assay: phage display panning on coated MAb; 3 clones
NE2 mutant 601LP = target: T1, NE2 mutant 601LP (hepatitis E virus, UniProt P29326 394-600); assay: WB
T1 construct: position counted on HEV ORF2
T1 chain: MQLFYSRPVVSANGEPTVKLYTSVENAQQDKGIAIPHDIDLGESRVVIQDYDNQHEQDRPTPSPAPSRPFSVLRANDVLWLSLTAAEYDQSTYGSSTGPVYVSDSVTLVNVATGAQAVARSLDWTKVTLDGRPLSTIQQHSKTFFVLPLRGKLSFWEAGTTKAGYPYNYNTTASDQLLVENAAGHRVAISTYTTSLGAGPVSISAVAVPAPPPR

NE2 mutant 601LQ = target: T2, NE2 mutant 601LQ (hepatitis E virus, UniProt P29326 394-600); assay: WB
T2 construct: position counted on HEV ORF2
T2 chain: T1 chain with P209Q

NE2 mutant 600VE = target: T3, NE2 mutant 600VE (hepatitis E virus, UniProt P29326 394-599); assay: Western blot of NE2 mutant proteins with monoclonal antibody 16D7
T3 construct: position counted on HEV ORF2
T3 chain: T1 chain with V208E, P209L

NE2 mutant 597AE = target: T4, NE2 mutant 597AE (hepatitis E virus, UniProt P29326 394-603); assay: as above
T4 construct: position counted on HEV ORF2
T4 chain: T1 chain with A205E, P209L

NE2 mutant 601LK = target: T5, NE2 mutant 601LK (hepatitis E virus, UniProt P29326 394-600); assay: as above
T5 construct: position counted on HEV ORF2
T5 chain: T1 chain with P209K

NE2 mutant 599AE = target: T6, NE2 mutant 599AE (hepatitis E virus, UniProt P29326 394-603); assay: as above
T6 construct: position counted on HEV ORF2
T6 chain: T1 chain with A207E, P209L

NE2 mutant 598VE = target: T7, NE2 mutant 598VE (hepatitis E virus, UniProt P29326 394-603); assay: as above
T7 construct: position counted on HEV ORF2
T7 chain: T1 chain with V206E, P209L

NE2 mutant 602AE = target: T8, NE2 mutant 602AE (hepatitis E virus, UniProt P29326 394-601); assay: as above
T8 construct: position counted on HEV ORF2
T8 chain: T1 chain with P209L, A210E

NE2 mutant 601LH = target: T9, NE2 mutant 601LH (hepatitis E virus, UniProt P29326 394-600); assay: as above
T9 construct: position counted on HEV ORF2
T9 chain: T1 chain with P209H

NE2 mutant 601LD = target: T10, NE2 mutant 601LD (hepatitis E virus, UniProt P29326 394-600); assay: as above
T10 construct: position counted on HEV ORF2
T10 chain: T1 chain with P209D

Measured: binding result

B1: monoclonal antibody 16D7 (antibody, V domains shown)
VH: EVQLQQSGPELVKPGASVKMSCKASGYKFTSYVMHWVKQKPGQGLEWIGYINPSNDNIKYNEKFKGKAILTLDKSSSTAYMAFSSLTSEDSAVYYCATLTGVDYWGQGTTLTVSS
VL: DVVMTQTPLSLSVTIGQPASISCKSSQSLLYRNGKIYLNWLQQRPGQAPKHLMSQVSKLDPGIPDRFSGSGSETDFTLKISRVEAEDLGVYYCLQGTHYPYTFGGGTKLEIKR
notes: also called MAb 16D7; HRP-16D7
binds: 7-peptide YQDSAKT | NE2 mutant 601LP | NE2 mutant 601LQ | NE2 mutant 600VE | NE2 mutant 597AE | NE2 mutant 601LK | NE2 mutant 599AE | NE2 mutant 598VE | NE2 mutant 602AE | NE2 mutant 601LH | NE2 mutant 601LD

Source: patent US20060233822A1 (YANG SHENG TANG, published 2006)
